The nature of this data set: yeast display, Sf9 membrane polyspecificity reagent, FACS + sequencing; frameworks hold sequencing errors. The gist of the method: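 After 36–48 hours of galactose induction, yeast (Saccharomyces cerevisiae BJ5465) displaying a synthetic nanobody library were stained at 4 °C for 1 hour with 10% biotinylated, detergent-solubilized Sf9 membrane reagent. Streptavidin microbeads enriched the stained cells before FACS sorting into low and high (top ~1%) gates on anti-HA and streptavidin fluorescence. Each clone's polyreactivity label reflects its gate of origin.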
On to “QVQLVESGGGLVQAGGSLRLSCAASGRTFVRYAMGWYRQAPGKERELVARITSSGGSTYYADSVKGRFTISRDNAKNTVYLQMNSLKPEDTAVYYCAKDTAFYRFQGHYGYWGQGTQVTVSS”, for which the “polyreactivity (PSR sort gate)” value was “high polyreactivity”. For “QVQLVESGGGLVEAGGSLRLSCAAYGRTFDYYDMGWYRPAPGKERELVAGITVSSGGTNYADSVKGRFTISRDNAKNTVYLQMNSLNPEDTAVYYCADANYDFYAFDSTYRYNYWGQGTQVTVSS”, the “polyreactivity (PSR sort gate)” value is on record as “low polyreactivity”. For the sequence “QVQLVESGGGLVQAGGSLRLSCAASGSIFDYNTMGWYRQAPGKERELVAVISGTGGSTYYADSVKGRFTISRGNAKNTVYLQMNSLKPEDTAVYYCAADTFVRNQWYLVEYWGQGTQVTVSS”, the “polyreactivity (PSR sort gate)” value is listed as “low polyreactivity”.

For the sequence “QVQLVESGGGLVQAGGSLRLSCAASGRTFYRYAMGWYRQAPGKERELVAAITWSGGSTYYADSVKGRFTTSRDNAKNTVYLQMNSLKPEDTAVYYCAADAALITYYGWADMYYWGQGTQVTVSS”, the “polyreactivity (PSR sort gate)” value is “low polyreactivity”. Next, “QVQLVESGGGLVQAGGSLRLSCAASGLTFVHYAMGWYRQAPGKQRDLVAAISSGGGSTYYADSVKGRFTISRDNAKNTVYLQMNSLKPEDTAVYYCNVYDHYYSFYSSRDNDYWGQGTQVTVSS”: “low polyreactivity”; “QVQLVETGGGLVQAGGSLRLSFGASGSTFSQYGMGLYRQAPGKVRELVAAIRRSGGRTYYADSVKGRFTISLDNAKNTVYLQMNSLKPEDTAVYYCAADEYRYYFYRPGIGYDYWGQGTQVTVSS”: “low polyreactivity”; “QVHLVESGGGLVQAGGSLRLSCAASGFIFISNSMGCYRQEPGKERELVARISDTDRTHYADSVKGRFTISRDNAKNTVYLQMNSQNPEDTAVYSCATDQSLLDKVYYDVQYDFWGQGTQVTVSS”: “low polyreactivity”.

Take “QVQLVESGGVLVQAGGSLRLSCAASGSTFGRYTMGWYRQAPGKERELVAVITKSGGSTYYADSVKGRFTISRDNAKNTVYLQMNSLKPEDTAVYYCAAGVAWRFYSWGQGTQVTVSS”: the “polyreactivity (PSR sort gate)” value is on record as “high polyreactivity”.

For the sequence “QVQLVESGGGLVQAGGSLRLSCAASGIISYQKAMGWYRQAPGKERELVAGITYSGGSTYYADSVKGRFTISRDNAKNSVYLQMNSLKPEDTAVYYCAARVVYWTWAGLSKMDYWGQGTQVTVSS”, the “polyreactivity (PSR sort gate)” value was “high polyreactivity”. Turning to “QVQLVESGGGLVQAGGSLRLSCAASGSILIYNAMGWYRQAPGKERELVAGISRRGASTYYADSVKGRFTISRDNAKNTVYLQMNSLKPEDTAVYYCAALGKYIVAWSGDYWGHGTQVTVSS”, the “polyreactivity (PSR sort gate)” value is “low polyreactivity”. Regarding “QVQLVESAGGLVQAGGSHRLSCPASGSIFDYNPMGWYTQAPGKESELVAAITSGGSTNYADSVKGRFTISRDNAKNTVYLHMNSLKPEDTAVYYCAADHDYYPSNLDFWGQGTQVTVSS”, the “polyreactivity (PSR sort gate)” value is given as “low polyreactivity”.

As for “QVQLVESGGGLVQAGGSLSLRCAASGRIFTVYAMVWYRPAPGKEMELVAAISKRDGSTSYADSVKGRFTISRDNAKNTVYLQMNSLKPEDTAVYYCNARNHVQVLFRRDYWGQGTQVTVSS”, the “polyreactivity (PSR sort gate)” value is listed as “low polyreactivity”. Under “QVQLVESGGGLVQAGGSLRLSCAASGFTLDWYAMGWYRQAPGKERELVAAIWSAGTTYYADSVKGRFTISRDNAKNTVYLQMNSLKPEDTAVYYCATVSDYDFGLYDYWGQGSQVTVSS” stands “low polyreactivity”; under “QVQLVESGGGLVQAGGSLRLSCAASGRIFAHYAMGWYRQAPGKEREMVAAISRRGGSTYYAESVKGRFTISRDNAKNTVYLQMNRLKPEDTAVYYCNAVTRSSLSWFFGYDYWGQGTQVTVSS”, “high polyreactivity”; under “EEELVESGGGLVQAGGSLRLSCAASGRTFVYNAMGWYRQAPWKERELVAAITSGDSTYYADSVKGRFTISRDNAKNTVYLQMNSLKPEDTAVYYCATDYSGIFYWYDYWGQGTQVTVSS”, “low polyreactivity”. As to “QVQLVESGGGLVQAGGSLRLSCAASGSIFYPNVMGWYRQAPGKERELVATISWSGGNTYYADSVKGRFTISRDNAKNTVYLQMNSLKPEDTAVYYCAADQWSQDYDYWGQGTQVTVSS”, the “polyreactivity (PSR sort gate)” value is given as “low polyreactivity”.

For “QVQLVDSGGGLVQAGGSLRLSCAASGFTIPTYAMGWYRQAPGKERELVAAISGDGDSTYYADSVKGRFTISRDNAKNTVYLQMNSLKPEDTAVYYCAAEPNVYFSVFVLFPSDYWGQGTQVTVSS”, the “polyreactivity (PSR sort gate)” value is reported as “low polyreactivity”. Next, “QVQLVESGGGLVQAGGSLRLSSADSGFIFSYYAMGWYRQAPGKERELVAAISSVGSTNYADSVKGRFTISRDNAKNTVYLQMNSLKPEDTAVYYCAARYLWYKYYYWGQGTQVTVSS”: “high polyreactivity”; “QVQLVESGGGLVQAGGSLRLSCAASGSTFASYAMGWYRQAPGKERELVAAIRWRGGTTYYADSVKGRFTISRDNAKNTVYLQMNSLKPDDTAVYYCNADRYYLYYYWGQGTQVTVSS”: “low polyreactivity”; “QVQLVESGGGLVQAGGSLRLSCAASGFTFTYNAMGWDRQAPGKERELVAAISWSGGSTRYADSVKGRFTISRDNAKKTVYFQMNSLKPEDTGVYYFNKYTYRGRTGEINYWGQGTQVTVSS”: “high polyreactivity”. Take “QVQRVESGGGLVQAGGSLRLSCAASGRTFNHYAMGWYRAAPGKERELVAAISRSGGTTYYADSVKGRFTISRENAKNTVYLQMNSLKPEDTAVYYCAARWWYRYNYDFWGQGTQVTVSS”: the “polyreactivity (PSR sort gate)” value is recorded as “high polyreactivity”. As for “QVQLVESGGGLVQAGGSLRLSCAASGSTSQYYAMGWYRQAPGKERELVAVISWSGGSTYYADSVKARFTISRDNAKNTVYLEMNSLKPEDTAVYYCAARYRRRVIATRDYWGQGTQVTVSS”, the “polyreactivity (PSR sort gate)” value is given as “high polyreactivity”. Turning to “QVHLVESGGGLVQAGGSLRLSCAASGGTFRVYAMGWYRQAPGKEWELVASISNGGSTNYADSEKGRFTISRDNAKNTVYLQMNSLKPEDTAVYYCAADPSYEVWYYDSPEYNYWGQGTQVTVSS”, the “polyreactivity (PSR sort gate)” value is on record as “low polyreactivity”. Next, “QVQLVESGGGLVQAGGSLSLSCAASGSTFTEYAMGWDRQAPGKERELVAGISSDGSTKYADSVKGRFTISRDNAMNTVYLQMNSLKTEDTAVYYCYIVQSYAKYDYWGQGTQVTVSS”: “low polyreactivity”.

For “QVQLEESGGCLVQAGGSLRLSCAASGFTFRGYAMGWYSQAPGKERELVAAISKRGGSTYYADSVKGRFTISRDNAKNTVYLLMNSLKPADTAVYYCNADYYIVGPPYSPTREDYWGQGTQVTVSS”, the “polyreactivity (PSR sort gate)” value was “high polyreactivity”. “QVQLVESGGGLVQAGGSLRLSCAASGRTFYKYGMGWYRQAPGKERELVARINSNGGSTYYADSVKGRFTISRDNAKNTVYLQMNSLKPEDTAVYYCAKRGSYRTKPASEYDSWGQGTQVTVSS”: the “polyreactivity (PSR sort gate)” value is reported as “low polyreactivity”. In the case of “QVQLVESGGGLLQAGGSLRLSCAASGSIFTHNAMGWYRQAPGKERELVAAISSGGSTNYADSVKGRFTISRDNAKNTVYLHMNSLKPEDTAVYYCAATDQKLSLDYSSYEYWGQGTQVTVSS”, the “polyreactivity (PSR sort gate)” value is on record as “low polyreactivity”. Under “QVQLVESGGGLVQAGGSLRFSCAASGHIFFYYTMGWYRQAPGKERELVAGITQSGGNTYYADSVKGRFTISRDNAKNTVYLQMNSLKPEDTAVYYCAARIRGTWKYGYWGQGTQVTVSS” stands “low polyreactivity”; under “QVQLVESGGGLVQAGGSLRLSCAASGSTFLDNAMGWYRQAPGKERELVAAITQSGSSTYYADSVKGRFTISRDNAKNTVYLQMNSLKPEDTAVYYCAADVPNISFDYWGQGTQVTVSS”, “low polyreactivity”; under “QVQLVESGGRLVQAGGSLRLTCASSGRIFRYYAMGWYRQAPGKERQLVAAISSSGGSTYYADSVKGRFTISRDNAKNTVYLQMNSLKPEDTAVYYCAARYHIDTLFYGSRYDYWGQGTQVTVSS”, “high polyreactivity”. In the case of “QVQLVESGGGLVQAGGSLRLSSAASGSIFYDNAMAGYRQAPGKERELVAVITVSGESTYYADSVKGRFTISRDNAKTTVYLQMNSLKPEDTAVYYCNTDAISGSHFWRYITFGYLDDYWGQGTQVTVSS”, the “polyreactivity (PSR sort gate)” value was “low polyreactivity”. Next, “QVQLVDSGVGLVQAGGSLRLSCAASGRIFSVYAMGRYRHAPGKERELVASISSGGSTNYADSVKGRFTISRDNAKNTVYLQMNSLKPEDTAVYYCAADYWYRLFWYYGAPLDYWGLGTQVTVSS”: “low polyreactivity”. “QVQLVAGGGLVQAGGSLRLSCAASGSIFYSNAMGWYRQAPGKERELVAAISFSGGSTYYADSVKGRFTISRDNAKNTVYLQMNSLKPEDTAVYYCAAEFYKRKFGPFEYWGQGTQVTVSS”: the “polyreactivity (PSR sort gate)” value is recorded as “low polyreactivity”. Under “QVQLVESVVGLVQAGGSLRLSCAASGRTFRRYAMGWYRQAPGKERELVAAISRSGGSTYADSVKGRFTISRDNAKNTVYLQMNSLKPEDTAVYYCAAVTYSGSRFDYWGQGTQVTVSS” stands “high polyreactivity”; under “QDQLVESGGGLVQAGGSLRLSCAASGSTFGDYTMGSYRQAPGKEREFVAAITVSVGSTYFADSVKGRFTISRDTAKNTVYLQMNSVKPEDTAFYYCNTDRDPYYHYFDGLYYYWGQGTQVTVSS”, “low polyreactivity”. Next, “QVQLVESGGGLVQAGGSLRLSCAASGFTFDLYARGWYRQAPGKERELVAAISSSCGSTYYADSVKGRFTISRDNAKNTVYLQMNSLKPEDTAVYDCARRYLYSSRLVTKYGYGMDYWGQGTQVTVSS”: “high polyreactivity”; “QVQLVESGGGLVQAGGSLRLSCAASGRILRYNAMGWYRQAPGKERELVASISGNGGSTYYADSVKGRFTISRDNAKNTVYLQMNSLKPEDTAVYYCNKYYYSSRGQKEYDYWGQGTQVTVSS”: “low polyreactivity”; “QVQLVESGGGLVQAGGSLRLSCAASGSIFDTYAMGWYRQAPGKERELVAAITRRAGSTYYADSVKGRFTISRDNAKNTVYLQMNSLKPEDTPVYYGAAGYDRYPGVIDEYWGQGTEVTVSS”: “low polyreactivity”. Next, “QVQLVESGGGLVQAGGSLRLSCAASGRIFGVNAMGWYRQAPGKERELVAAIRYSGGSTYYADSVKGRFTISRDNAKNTVYLQMNSLKPEDTAVYYCAKARYTYSWSFGYWGQGTQVTVSS”: “low polyreactivity”. As to “QVHLVDSGGGLVQAGGSLRLSCAASGIIFTGNAMGWYRQAPGKERELVAGITGSGGNTYYADSVKGRFTISSDNAKNTVYLQMNCLKPEDTAVYYCAARRHIFLLIIWSGRVDYWGQGTQVTVSS”, the “polyreactivity (PSR sort gate)” value is listed as “low polyreactivity”.

For the origin of these results see the nanobody polyreactivity screen of Harvey et al. (2022).
